# Data taken from IntAct's records for PubMed 17069809.
# B1: Parabutoporin (Parabuthus schlechteri), P83312 (parent)
# chain: FKLGSFLKKAWKSKLAKKLRAKGKEMLKDYAKGLLEGGSEEVPGQ
# Variants of: B1
# Details: with kpca_human PRKCA
row,Variant,effect of a mutation on the interaction
1,S5A;S13A,disrupting interaction
